In US20180208664A1 (APOGENIX, published 2018):

Biological target: T1, APG293 (human CD95L-T4) (human)
T1 chain: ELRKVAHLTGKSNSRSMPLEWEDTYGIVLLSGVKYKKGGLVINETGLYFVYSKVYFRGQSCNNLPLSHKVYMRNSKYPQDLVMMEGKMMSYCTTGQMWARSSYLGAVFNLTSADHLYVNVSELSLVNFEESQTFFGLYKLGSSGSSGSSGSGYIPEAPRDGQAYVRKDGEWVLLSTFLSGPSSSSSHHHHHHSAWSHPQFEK
Experiment: cell-based or functional assay

B1: scFv-minibody SEQ ID 38 (scFv)
scFv: EVQLVESGGGLVQPGGSLRLSCAASGFSFSSGYDMCWVRQAPGKGLEWVACIDTDNDATYYASWAKGRFTISKDSSKNTLYLQMNSLRAEDTAVYYCARTHGDYVAFKLWGQGTLVTVSGGGSGGGSGGGSGGGSDIQMTQSPSSLSASVGDRVTITCQSSQSVYKNNDLSWYQQKPGKAPKLLIYQASKLASGVPSRFSGSGSGTDFTLTISSLQPEDFATYYCAGGYTASIYAFGQGTKVEIKGSGSSGQPREPQVYTLPPSREEMTKNQVSLTCLVKGFYPSDIAVEWESQGSPENNYKTTPPVLDSDGSFFLYSKLTVDKSRWQQGNVFSCSVMHEALHNHYTQKSLSLSPGSSSSSSAWSHPQFEK
For B1, the “EC50, Assay 1: antagonism of CD95L-T4-induced apoptosis on Jurkat A3 cells” value (“EC50, Assay 1: antagonism” below) was 0.118 mg/L, the “EC50, Assay 2: antagonism of CD95L-T4-induced apoptosis on Jurkat A3 cells” value (shortened to “EC50, Assay 2: antagonism”) was 0.114 mg/L and the “EC50, Assay 5: antagonism of CD95L-T4-induced apoptosis on Jurkat A3 cells” value (“EC50, Assay 5: antagonism” for short) was 0.0957 mg/L. The “EC50, Assay 6: antagonism of CD95L-T4-induced apoptosis on Jurkat A3 cells” value (from here on “EC50, Assay 6: antagonism”) was 0.111 mg/L and the “EC50, Mean: antagonism of CD95L-T4-induced apoptosis on Jurkat A3 cells” value (from here on “EC50, Mean: antagonism”) was 0.11 mg/L.

B2: scFv-minibody SEQ ID 40 (scFv)
scFv: EVQLVESGGGLVQPGGSLRLSCAASGFSFSSGYDMSWVRQAPGKGLEWVSAIDTDNDATYYADSVKGRFTISKDSSKNTLYLQMNSLRAEDTAVYYCARTHGDYVAFKLWGQGTLVTVSGGGSGGGSGGGSGGGSDIQMTQSPSSLSASVGDRVTITCQSSQSVYKNNDLSWYQQKPGKAPKLLIYQASKLASGVPSRFSGSGSGTDFTLTISSLQPEDFATYYCAGGYTASIYAFGQGTKVEIKGSGSSGQPREPQVYTLPPSREEMTKNQVSLTCLVKGFYPSDIAVEWESQGSPENNYKTTPPVLDSDGSFFLYSKLTVDKSRWQQGNVFSCSVMHEALHNHYTQKSLSLSPGSSSSSSAWSHPQFEK
In the case of B2, the “EC50, Assay 1: antagonism” value is reported as 0.532 mg/L, the “EC50, Assay 2: antagonism” value is reported as 0.591 mg/L and the “EC50, Assay 5: antagonism” value is reported as 0.701 mg/L. The “EC50, Assay 6: antagonism” value was 0.571 mg/L and the “EC50, Mean: antagonism” value was 0.599 mg/L.

B3: scFv-minibody SEQ ID 39 (scFv)
scFv: EVQLVESGGGLVQPGGSLRLSCAASGFSFSSGYDMCWVRQAPGKGLEWVACIDTDNDATYYADSVKGRFTISKDSSKNTLYLQMNSLRAEDTAVYYCARTHGDYVAFKLWGQGTLVTVSGGGSGGGSGGGSGGGSDIQMTQSPSSLSASVGDRVTITCQSSQSVYKNNDLSWYQQKPGKAPKLLIYQASKLASGVPSRFSGSGSGTDFTLTISSLQPEDFATYYCAGGYTASIYAFGQGTKVEIKGSGSSGQPREPQVYTLPPSREEMTKNQVSLTCLVKGFYPSDIAVEWESQGSPENNYKTTPPVLDSDGSFFLYSKLTVDKSRWQQGNVFSCSVMHEALHNHYTQKSLSLSPGSSSSSSAWSHPQFEK
For B3, the “EC50, Assay 1: antagonism” value was 0.0994 mg/L, the “EC50, Assay 2: antagonism” value was 0.105 mg/L and the “EC50, Assay 5: antagonism” value was 0.0865 mg/L. For the same binder, the “EC50, Assay 6: antagonism” value was 0.0834 mg/L and the “EC50, Mean: antagonism” value was 0.093 mg/L.

B4: scFv-minibody SEQ ID 49 (scFv)
scFv: EVQLVESGGGLVQPGGSLRLSCAASGFSFSDHYWMCWVRQAPGKGLEWVACIYTADSDSYYASWAKGRFTISKDSSKNTLYLQMNSLRAEDTAVYYCARNGAYAGGPYGDLWGQGTLVTVSGGGSGGGSGGGSGGGSDIQMTQSPSSLSASVGDRVTITCKASQSIRTSLVWYQQKPGKAPKLLIYKASDLPSGVPSRFSGSGSGTDFTLTISSLQPEDFATYYCQSYDFRDTINNGHSFGQGTKVEIKGSGSSGQPREPQVYTLPPSREEMTKNQVSLTCLVKGFYPSDIAVEWESQGSPENNYKTTPPVLDSDGSFFLYSKLTVDKSRWQQGNVFSCSVMHEALHNHYTQKSLSLSPGSSSSSSAWSHPQFEK
With B4 the “EC50, Assay 3: antagonism of CD95L-T4-induced apoptosis on Jurkat A3 cells” value (“EC50, Assay 3: antagonism” for short) was 0.172 mg/L, the “EC50, Assay 4: antagonism of CD95L-T4-induced apoptosis on Jurkat A3 cells” value (“EC50, Assay 4: antagonism” below) was 0.144 mg/L and the “EC50, Assay 5: antagonism” value was 0.117 mg/L. For the same binder, the “EC50, Assay 6: antagonism” value was 0.127 mg/L and the “EC50, Mean: antagonism” value was 0.14 mg/L.

B5: scFv-minibody SEQ ID 51 (scFv)
scFv: EVQLVESGGGLVQPGGSLRLSCAASGFSFSDHYWMSWVRQAPGKGLEWVSAIYTADSDSYYADSVKGRFTISKDSSKNTLYLQMNSLRAEDTAVYYCARNGAYAGGPYGDLWGQGTLVTVSGGGSGGGSGGGSGGGSDIQMTQSPSSLSASVGDRVTITCKASQSIRTSLVWYQQKPGKAPKLLIYKASDLPSGVPSRFSGSGSGTDFTLTISSLQPEDFATYYCQSYDFRDTINNGHSFGQGTKVEIKGSGSSGQPREPQVYTLPPSREEMTKNQVSLTCLVKGFYPSDIAVEWESQGSPENNYKTTPPVLDSDGSFFLYSKLTVDKSRWQQGNVFSCSVMHEALHNHYTQKSLSLSPGSSSSSSAWSHPQFEK
With B5 the “EC50, Assay 3: antagonism” value was 1.55 mg/L, the “EC50, Assay 4: antagonism” value was 2.26 mg/L and the “EC50, Assay 5: antagonism” value was 1.48 mg/L. The “EC50, Assay 6: antagonism” value was 1.74 mg/L and the “EC50, Mean: antagonism” value was 1.76 mg/L.

B6: scFv-minibody SEQ ID 50 (scFv)
scFv: EVQLVESGGGLVQPGGSLRLSCAASGFSFSDHYWMCWVRQAPGKGLEWVACIYTADSDSYYADSVKGRFTISKDSSKNTLYLQMNSLRAEDTAVYYCARNGAYAGGPYGDLWGQGTLVTVSGGGSGGGSGGGSGGGSDIQMTQSPSSLSASVGDRVTITCKASQSIRTSLVWYQQKPGKAPKLLIYKASDLPSGVPSRFSGSGSGTDFTLTISSLQPEDFATYYCQSYDFRDTINNGHSFGQGTKVEIKGSGSSGQPREPQVYTLPPSREEMTKNQVSLTCLVKGFYPSDIAVEWESQGSPENNYKTTPPVLDSDGSFFLYSKLTVDKSRWQQGNVFSCSVMHEALHNHYTQKSLSLSPGSSSSSSAWSHPQFEK
For B6, the “EC50, Assay 3: antagonism” value was 0.169 mg/L, the “EC50, Assay 4: antagonism” value was 0.136 mg/L and the “EC50, Assay 5: antagonism” value was 0.128 mg/L. The “EC50, Assay 6: antagonism” value was 0.14 mg/L and the “EC50, Mean: antagonism” value was 0.143 mg/L.

B7: scFv-minibody SEQ ID 48 (scFv)
scFv: QSLEESGGDLVKPGGTLTLTCTTSGFSFSDHYWMCWVRQAPGKGLEWIACIYTADSDSYYASWAKGRFTISKTSSTTVTLQMTSLTAADTATYFCARNGAYAGGPYGDLWGPGTLVTVSGGGSGGGSGGGSGGGSDIVMTQTPSSVEAAVGGTVTIKCQASQSIRTSLVWYQQKPGQPPKLLIYKASDLPSGVPSRFKGSGSGTQFTLTISDLESADAATYYCQSYDFRDTINNGHSFGGGTEVVVKGSGSSGQPREPQVYTLPPSREEMTKNQVSLTCLVKGFYPSDIAVEWESQGSPENNYKTTPPVLDSDGSFFLYSKLTVDKSRWQQGNVFSCSVMHEALHNHYTQKSLSLSPGSSSSSSAWSHPQFEK
B7 was tested, and the “EC50, Assay 3: antagonism” value was 0.116 mg/L, the “EC50, Assay 4: antagonism” value was 0.0908 mg/L and the “EC50, Assay 5: antagonism” value was 0.0844 mg/L. The “EC50, Assay 6: antagonism” value was 0.0975 mg/L and the “EC50, Mean: antagonism” value was 0.097 mg/L.

B8: scFv-minibody SEQ ID 37 (scFv)
scFv: QSLEESGGDLVKPGASLTLTCTASGFSFSSGYDMCWVRQAPGKGLEWIACIDTDNDATYYASWAKGRFTISKPSSTTVLLQITSLTAADTATYFCATTHGDYVAFKLWGPGTLVTVSGGGSGGGSGGGSGGGSQVLTQTASSVSAAVGGTVTINCQSSQSVYKNNDLSWYQQKPRQPPKLLIYQASKLASGVPSRFKGSGSGTQFTLTIGDLESDDGATYYCAGGYTASIYAFGGGTEVVGSGSSGQPREPQVYTLPPSREEMTKNQVSLTCLVKGFYPSDIAVEWESQGSPENNYKTTPPVLDSDGSFFLYSKLTVDKSRWQQGNVFSCSVMHEALHNHYTQKSLSLSPGSSSSSSAWSHPQFEK
With B8 the “EC50, Assay 1: antagonism” value was 0.124 mg/L, the “EC50, Assay 2: antagonism” value was 0.117 mg/L and the “EC50, Assay 5: antagonism” value was 0.113 mg/L. The “EC50, Assay 6: antagonism” value was 0.118 mg/L and the “EC50, Mean: antagonism” value was 0.118 mg/L.

B9: APG101 (Fc fusion, UniProt P25445 26-173, looked up, not shown: a dimerising Fc or GST)
chain: QVTDINSKGLELRKTVTTVETQNLEGLHHDGQFCHKPCPPGERKARDCTVNGDEPDCVPCQEGKEYTDKAHFSSKCRRCRLCDEGHGLEVEINCTRTQNTKCRCKPNFFCNSTVCEHCDPCTKCEHGIIKECTLTSNTKCKEEGSRSN
With B9 the “EC50, Assay 1: antagonism” value was 0.774 mg/L, the “EC50, Assay 2: antagonism” value was 0.789 mg/L and the “EC50, Assay 3: antagonism” value was 0.707 mg/L. The “EC50, Assay 4: antagonism” value was 0.714 mg/L and the “EC50, Mean: antagonism” value was 0.746 mg/L.
